Measurements taken from article PMC9798557 (Journal of Hematology & Oncology, 2022).

Molecular target: T1, human CD38 (Homo sapiens, UniProt P28907)
T1 construct: CD38, human; Used for both the SPR and the cryo-EM complex; probably a soluble extracellular form
Assay: SPR; Biacore 8 K
Settings: both partners purified

B1: daratumumab (antibody, V domains shown)
VH: EVQLLESGGGLVQPGGSLRLSCAVSGFTFNSFAMSWVRQAPGKGLEWVSAISGSGGGTYYADSVKGRFTISRDNSKNTLYLQMNSLRAEDTAVYFCAKDKILWFGEPVFDYWGQGTLVTVSS
VL: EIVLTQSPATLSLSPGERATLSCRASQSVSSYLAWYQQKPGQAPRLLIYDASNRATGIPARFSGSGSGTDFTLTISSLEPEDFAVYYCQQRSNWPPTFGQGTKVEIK
notes: heavy chain of daratumumab; light chain of daratumumab; Marketed anti-CD38 mAb used as a comparator
**Q.** With B1 as the binder, how does the Kd read?
**A.** 3.84 nM
